Assay results: patent US20180118785A1 (University of Pennsylvania, published 2018)
Bridges are numbered along the chain shown (N, C = ends). [ ]: non-standard residue; d: D form. Bpa = N[C@@H](Cc1ccc(C(=O)c2ccccc2)cc1)C(=O)O; 1Nal = N[C@@H](Cc1cccc2ccccc12)C(=O)O; 2Nal = N[C@@H](Cc1ccc2ccccc2c1)C(=O)O; Igl = N[C@H](C(=O)O)C1Cc2ccccc2C1

B1: +G,4W,9A + AN-OH (peptide)
peptide: H-GICVWQDWGAHRCTAN-OH
modifications: disulfide 3-13
SMILES: CC[C@H](C)[C@H](NC(=O)CN)C(=O)N[C@H]1CSSC[C@@H](C(=O)N[C@H](C(=O)N[C@@H](C)C(=O)N[C@@H](CC(N)=O)C(=O)O)[C@@H](C)O)NC(=O)[C@H](CCCNC(=N)N)NC(=O)[C@H](Cc2c[nH]cn2)NC(=O)[C@H](C)NC(=O)CNC(=O)[C@H](Cc2c[nH]c3ccccc23)NC(=O)[C@H](CC(=O)O)NC(=O)[C@H](CCC(N)=O)NC(=O)[C@H](Cc2c[nH]c3ccccc23)NC(=O)[C@H](C(C)C)NC1=O
B2: Ac-4(Bpa),9A-OH (peptide)
peptide: Ac-ICV[Bpa]QDWGAHRCT-OH
modifications: disulfide 2-12 (inferred)
B3: Ac-4IgI,9A (peptide)
peptide: Ac-ICV[Igl]QDWGAHRCT-NH2
modifications: disulfide 2-12 (inferred)
B4: Ac-4(2-Nal),9A-OH (peptide)
peptide: Ac-ICV[2Nal]QDWGAHRCT-OH
modifications: disulfide 2-12 (inferred)
B5: Ac-4(2-Nal),9A (peptide)
peptide: Ac-ICV[2Nal]QDWGAHRCT-NH2
modifications: disulfide 2-12 (inferred)
B6: Ac-4(1-Nal),9A-OH (peptide)
peptide: Ac-ICV[1Nal]QDWGAHRCT-OH
modifications: disulfide 2-12 (inferred)
B7: Ac-4Y,9A (peptide)
peptide: Ac-ICVYQDWGAHRCT-NH2
modifications: disulfide 2-12
SMILES: CC[C@H](C)[C@H](NC(C)=O)C(=O)N[C@H]1CSSC[C@@H](C(=O)N[C@H](C(N)=O)[C@@H](C)O)NC(=O)[C@H](CCCNC(=N)N)NC(=O)[C@H](Cc2c[nH]cn2)NC(=O)[C@H](C)NC(=O)CNC(=O)[C@H](Cc2c[nH]c3ccccc23)NC(=O)[C@H](CC(=O)O)NC(=O)[C@H](CCC(N)=O)NC(=O)[C@H](Cc2ccc(O)cc2)NC(=O)[C@H](C(C)C)NC1=O
B8: Ac-4Dht,9A-OH (peptide)
peptide: ICVXQDWGAHRCT
modifications: N-terminal acetyl; dihydrotryptophan (Dht) at position 4; free C-terminal acid (COOH); disulfide bond between the two Cys residues
B9: Ac-4IgI,9A-OH (peptide)
peptide: Ac-ICV[Igl]QDWGAHRCT-OH
modifications: disulfide 2-12 (inferred)

The molecules below were run against complement component C3 (human, in normal human plasma) (human) (UniProt P01024) (assay: cell-based or functional assay).

complement-inhibitory activity compared with Compstatin (fold over Compstatin)	Molecule
21	Compstatin analog with Ile substituted for Thr at position 13 (peptide)

The molecules below were run against complement component C3 (human, in normal human plasma) (human, UniProt P01024 23-1663) (assay: cell-based or functional assay).

Activity over Compstatin (inhibition of C3b/iC3b deposition on immunocomplexes in human plasma, compared by IC50) [fold over Compstatin]	Molecule
38	B1
55	B2
55	B3
39	B4
66	B5
23	B6
19	B7
9	B8
55	B9
